Measured values taken from the RNAGym collection of RNA variant scans (doi:10.7554/elife.80360).

B1: Hairpin Ribozyme (parent)
chain: GUCCUCUUUCACGUGCGCGUGAAAGAGAGAAGUGAACCAGAGAAACACACGUUGUGGUAUAUUACCUGGUA

Variants of: B1
Test: self-cleavage, relative activity (ratio to wild type); higher = more cleavage; co-transcriptional

Variant | self-cleavage
A24C A64C | 0.192
A24U A49G | 0.533
A22U G69U | 0.259
A24G G29A | 0.11
A24U A71G | 1.11
A24U A44U | 0.123
A24U C38U | 0.471
A24U C38G | 0.135
A23G U60C | 0.924
A23G U60G | 0.516
A24G A49U | 0.124
A24G A49G | 0.352
A24U A61C | 0.0949
A23G A59C | 0.0706
A23U C48G | 0.226
A23U A41C | 0.798
A23U G29A | 0.145
G25A A31G | 0.127
A23G U52G | 0.78
A24C C48U | 0.216
A24U A64U | 0.0963
A24U A64C | 0.142
A24U A36U | 0.41
A23U U60G | 0.569

Variant | self-cleavage
A23U U60C | 0.749
G25A A43G | 0.133
A23G C37G | 0.311
A23G C37A | 0.287
A24G G68A | 0.172
A23C G56A | 0.187
A23G G27C | 0.149
A24G A35G | 0.797
A24G A35U | 0.645
A24G A35C | 0.82
G25A A47G | 0.277
A24C U62G | 0.199
A23U A26G | 0.88
A24C A43U | 0.115
A24G C66A | 0.214
A24G C66U | 0.403
A23U U33A | 0.153
A24G G27A | 0.401
A24U G32A | 0.15
A24U G32C | 0.114
A23G U58A | 0.662
A24G U53C | 0.881
A23U A24U | 0.737
A24C A44U | 0.17

Variant | self-cleavage
A23U A36U | 0.491
A23U A36G | 0.681
A23G A24G | 0.715
A24C U52A | 1.05
A24C U52G | 1.08
A24C A30G | 0.201
A23G C48U | 0.232
A24U A43C | 0.174
A24U C65A | 0.734
A24U C65U | 0.39
A23G G69C | 0.303
A23C A45G | 0.173
A22U A49U | 0.293
A23G G32U | 0.0923
A23G G32C | 0.163
A23C G27A | 0.464
A23C G27C | 0.187
A23G G54U | 0.586
A23G G54C | 0.363
A23C A36U | 0.475
A23C A36C | 0.286
A24G A47C | 0.245
A24G A47G | 0.191
A24C G42U | 0.374

Variant | self-cleavage
A24G A28U | 0.475
A24G A28C | 0.338
A24U U55C | 0.11
A24U U55G | 0.242
A24U U55A | 0.186
A23U G34A | 0.956
A23C U53C | 0.702
A23C U53G | 0.562
A23U U63C | 0.182
A23U U63A | 0.142
A24C G68A | 0.233
A23C A71U | 0.832
A24C G69U | 0.188
A23C G29C | 0.126
A23C U62G | 0.0867
A22U A59G | 0.117
A23G C65U | 0.349
A22U C37A | 0.352
A22U C37U | 0.443
A23C C46G | 0.092
A23C | 0.822
A23U | 0.852
A23G | 0.851
A23G U55G | 0.192

Variant | self-cleavage
A24U U53G | 0.674
A24U U52C | 0.723
A24G U70C | 0.913
G25A A30C | 0.087
A23U U62A | 0.106
A23G C50G | 0.153
A23U G42A | 0.214
A23U A49U | 0.193
A24U G68C | 0.0904
A24U G68A | 0.361
A24C A49U | 0.119
A23U G68C | 0.139
A23U G68A | 0.184
A23C A39G | 0.248
A23U C66U | 0.545
A23U C66G | 0.222
A23C U52C | 0.77
A23C U52G | 0.489
A23G U62G | 0.0705
A23G U62C | 0.43
A22U U60C | 0.719
A22U U60G | 0.611
A24U G57C | 0.181
A24U G42U | 0.342

Variant | self-cleavage
A24U G42C | 0.394
A24G G25U | 0.527
A24C U63C | 0.184
A24G A36C | 0.466
A23U C37U | 0.594
A23U A28G | 0.956
G25A A26U | 0.175
A23G G29A | 0.0583
A23G G29C | 0.123
A23G A43C | 0.169
A23G A64C | 0.2
A22U C38U | 0.41
A22U C38A | 0.155
A24G C38A | 0.125
A24G C38G | 0.197
A24G A59G | 0.272
A24U A39G | 0.34
A23G U70C | 0.934
A24G U55G | 0.193
A23G A26G | 0.648
A23G A26C | 0.524
A24C C66U | 0.395
A24C C37U | 0.455
A24C C37G | 0.242

Variant | self-cleavage
A24C A59U | 0.204
A23U A45U | 0.2
A24U A28G | 0.731
A24U A28U | 0.521
A23G U33C | 0.0496
A22U G40U | 0.115
A22U G40A | 0.218
A23U A61G | 0.125
A23U A61C | 0.126
A23C A47G | 0.132
A23G C66U | 0.456
A22U G25U | 0.253
A24C G54A | 0.547
A24G C50A | 0.187
A24C G40U | 0.132
A24U A31U | 0.0897
A24U A31G | 0.392
A22U A31U | 0.12
A24C A35G | 0.864
A23G A28G | 1.23
A24G A44G | 0.152
A24U G51U | 0.78
A24U G51A | 0.751
